For four molecules, EC50 results are on record in patent US20220220218A1 (JIANGSU HENGRUI MEDICINE, published 2022).

In the assay the target is T1, CD73-Myc-His (a fusion protein of the CD73 mature protein extracellular domain and Myc tag and His tag) (human, UniProt P21589 27-547, biotinylated with a kit (sites not given)).
T1 construct: Captured on streptavidin-coated plates in the ELISA; also called biotinylated CD73-myc-his fusion protein; human CD73 protein
T1 sequence: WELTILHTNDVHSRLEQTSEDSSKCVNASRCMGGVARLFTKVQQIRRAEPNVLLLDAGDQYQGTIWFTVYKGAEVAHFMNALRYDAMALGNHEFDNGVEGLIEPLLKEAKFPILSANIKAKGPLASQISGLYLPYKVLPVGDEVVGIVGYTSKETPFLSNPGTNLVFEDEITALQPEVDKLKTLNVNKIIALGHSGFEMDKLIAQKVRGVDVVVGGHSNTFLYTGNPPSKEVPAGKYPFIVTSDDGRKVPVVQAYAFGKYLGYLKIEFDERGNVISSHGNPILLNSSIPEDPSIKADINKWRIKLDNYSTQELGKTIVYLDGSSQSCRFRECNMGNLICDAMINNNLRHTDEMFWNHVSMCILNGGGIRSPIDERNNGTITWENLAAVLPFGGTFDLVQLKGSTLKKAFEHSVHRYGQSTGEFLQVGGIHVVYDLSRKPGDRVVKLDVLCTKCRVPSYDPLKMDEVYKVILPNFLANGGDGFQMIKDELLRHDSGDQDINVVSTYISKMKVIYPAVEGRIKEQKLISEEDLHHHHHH
Kind of assay: ELISA; biotinylated CD73-myc-his captured on streptavidin plate. On the procedure:
The binding of anti-CD73 antibodies to human CD73 protein was tested by ELISA assay. The biotinylated CD73 fusion protein was immobilized onto a 96-well microtiter plate by binding to the Streptavidin coated on the microtiter plate. The signal strength after the addition of the antibody was used to determine the binding activity of the antibody to CD73. The specific experimental procedures were as follows:
Streptavidin (Sigma, Cat No. S4762-5MG) was diluted with PBS, pH7.4 (Shanghai BasalMedia, Cat No. B320) buffer to a concentration of […], was added into the 96-well microtiter plate (Corning, Cat No. CLS3590-100EA), 50 μl/well, and incubated in an incubator at 37° C. for 2 hours. The liquid was discarded, 250 μl/well blocking solution (5% skim milk (BD skim milk, Cat No. 232100) diluted in PBS) was added, and incubated in an incubator at 37° C. for 3 hours or at 4° C. overnight (16-18 hours) for blocking. After blocking, the blocking solution was discarded; the plate was washed for 5 times with PBST buffer (PBS containing 0.05% tween-20, pH7.4), 50 μl/well of biotinylated CD73-myc-his fusion protein (Tojin Chemical, Cat No. LK03, biotinylation method was according to the kit's instruction) diluted with sample diluent (PBS containing 1% BSA, pH7.4) was added, and incubated in an incubator at 37° C. 1 hour or at 4° C. overnight. After the incubation was finished, the reaction solution was removed from the microtiter plate, the plate was washed for 5 times with PBST, 50 μl/well of various concentrations of each of the test antibodies (purified hybridoma antibodies or humanized antibodies, diluted with sample diluent) were added, and incubated in an incubator at 37° C. for 1 hour. After the incubation was finished, the plate was washed for 5 times with PBST, 50 µl/well of HRP-labeled goat anti-mouse secondary antibody (Jackson Immuno Research, Cat No. 115-035-003) or goat anti-human secondary antibody (Jackson Immuno Research, Cat No. 109-035-003) diluted with sample diluent was added, and incubated at 37° C. for 1 hour. The plate was washed for 5 times with PBST, 50 μl/well of TMB chromogenic substrate (KPL, Cat No. 52-00-03) was added, incubated at room temperature for 5-10 min, and 50 μl/well of 1M H₂SO₄ was added to stop the reaction.

B1: Hab108.64 (antibody, human IgG1, kappa, V domains shown)
VH: EVTLKQSGPGLVKPTETLTLTCTVSGFSLSSYGIQWVRQPPGKGLEWLGVIWSGGSADYNAAFISRLTISKDTSKSQVVLTMTNMDPVDTATYYCAGQYGSVWGQGTLVTVSS
VL: DIQMTQSPSSLSASVGDRVTITCRASQDIGDRLNWLQQKPGGAIKRLIYATSSLDSGVPKRFSGSGSGTEYTLTISSLQPEDFATYYCLQYAGSWTFGGGTKVEIKR
notes: also called humanized antibody of mab108
One may read the EC50 as the midpoint of the concentration-response curve. A low value points to higher potency in that assay. Consider B1, for which it took 47 pM to reach a half-maximal effect (EC50).

B2: Hab110.21 (antibody, human IgG1, kappa, V domains shown)
VH: EVQLVQSGAEVKKPGASVKVSCKASGYTFTSYTMHWVRQAPGQRLEWMGYINPNSFYIEYNQKFKDRVTITRDTSASTAYMELSSLRSEDTAVYYCARGDYDLFYDMDNWGQGTTVTVSS
VL: DIQMTQSPSSLSASVGDRVTITCRASQDIGNSLNWLQQKPGKAIKRLIYATFRLDSGVPSRFSGSRSGTEYTLTISSLQPEDFATYYCQQYASFPWTFGGGTKVEIKR
notes: also called humanized antibody of mab110
As for B2, the response was half-maximal at 26 pM (EC50).

B3: Hab127.31d (antibody, human IgG1, kappa, V domains shown)
VH: EVQLVQSGAEVKKPGASVKVSCKASGYTFTAYFMNWVRQAPGQGLEWMGRIYHNKGDTFYSQKFKGRVTMTVDKSTSTVYMELSSLRSEDTAVYYCATSYVGDWGQGTTVTVSS
VL: DIQMTQSPSSLSASVGDRVTITCRASQDIGDSLNWLQQKPGGALKRLIYATSSLDSGVPSRFSGSGSGTEYTLTISSLQPEDFATYYCLQYASFPWTFGGGTKVEIKR
notes: also called humanized antibody of mab127
B3 displayed a concentration giving a half-maximal response (EC50) of 26 pM.

B4: CPX006 (antibody CPX-006 disclosed in patent application WO2018013611) (antibody, V domains shown)
VH: QVQLVQSGAEVEKPGASVKVSCKASGYTFTSYWITWVRQAPGQGLEWMGDIYPGSGNTNYNEKFKTRVTITADKSTSTAYMELSSLRSEDTAVYYCAKEGGLTTEDYALDYWGQGTLVTVSS
VL: EIVLTQSPATLSLSPGERATLSCRASKNVSTSGYSYMHWYQQKPGQAPRLLIYLASNLESGIPPRFSGSGYGTDFTLTINNIESEDAAYYFCQHSRELPFTFGQGTKVEIKR
B4 registered a half-maximal effective concentration (EC50) of 88 pM.
